Experimental data taken from patent publication US5973118.

Experiments:
[1] = molecular target: recombinant plasminogen activator rPA (recombinant tPA derivative comprising the kringle 2 and protease domains) (Homo sapiens (Human)) (UniProt P00750); experiment: affinity column: inhibitor coupled to CNBr-Sepharose, loaded with 2 MU r-PA/ml gel, eluted rPA by S2288 amidolytic activity, run 2
[2] = molecular target: recombinant plasminogen activator rPA (recombinant tPA derivative comprising the kringle 2 and protease domains) (Homo sapiens (Human)) (UniProt P00750); experiment: affinity column: inhibitor coupled to CNBr-Sepharose, loaded with 2 MU r-PA/ml gel, eluted rPA by S2288 amidolytic activity, run 4
[3] = molecular target: recombinant plasminogen activator rPA (recombinant tPA derivative comprising the kringle 2 and protease domains) (Homo sapiens (Human)) (UniProt P00750); experiment: affinity column: inhibitor coupled to CNBr-Sepharose, loaded with 2 MU r-PA/ml gel, eluted rPA by S2288 amidolytic activity, run 1
[4] = molecular target: recombinant plasminogen activator rPA (recombinant tPA derivative comprising the kringle 2 and protease domains) (Homo sapiens (Human)) (UniProt P00750); experiment: affinity column: inhibitor coupled to CNBr-Sepharose, loaded with 2 MU r-PA/ml gel, eluted rPA by S2288 amidolytic activity, run 3
[5] = molecular target: recombinant plasminogen activator rPA (recombinant tPA derivative comprising the kringle 2 and protease domains) (Homo sapiens (Human)) (UniProt P00750); experiment: affinity column: inhibitor coupled to CNBr-Sepharose, loaded with 2 MU r-PA/ml gel, eluted rPA by S2288 amidolytic activity, run 5
[6] = molecular target: recombinant plasminogen activator rPA (recombinant tPA derivative comprising the kringle 2 and protease domains) (Homo sapiens (Human)) (UniProt P00750); experiment: affinity column: inhibitor coupled to CNBr-Sepharose, eluted rPA; reference seed-ETI-Sepharose

| Binding capacity MU/ml [1] [MU/ml] | Binding capacity MU/ml [2] [MU/ml] | Binding capacity MU/ml [3] [MU/ml] | Binding capacity MU/ml [4] [MU/ml] | Binding capacity MU/ml [5] [MU/ml] | specific activity (U/mg), inhibition of trypsin with BAPA as substrate (trypsin) [U/mg] | fold higher binding capacity than seed-ETI-Sepharose [6] [fold] | Substance |
| --- | --- | --- | --- | --- | --- | --- | --- |
| 0.95 | 1.01 | 1.04 | 1.08 | 0.98 | 0.88 | – | ETI isolated from the seeds of Erythrina caffra [ETI (seeds)] (from UniProt P09943) |
| 1.35 | 1.48 | 1.28 | 1.53 | 1.49 | 1.5 | 1.5 | SerETI (recombinant ETI polypeptide in which the N-terminal Val is replaced by Ser) |
| – | – | – | – | – | 1.07 | – | recombinant, non-modified ETI (recETI) (from UniProt P09943) |
